Converted amounts (≈) assume the structure as drawn.
How the values were obtained:
[1] = test system: Bacterial cells containing IPTG-inducible antisense nucleic acid against rplL and rplJ (50S ribosomal subunit proteins); assay: microbe, parasite or virus in culture; format: cell-based, E. coli; conditions: Escherichia coli, read-out: IC50 (+IPTG)
Procedure: Antibiotics of various chemical classes and modes of action were purchased from Sigma Chemicals (St. Louis, Mo.). Stock solutions were prepared by dissolving each antibiotic in an appropriate aqueous solution based on information provided by the manufacturer. The final working solution of each antibiotic contained no more than 0.2% (w/v) of any organic solvent. To determine their potency against a bacterial strain engineered for expression of an antisense against a proliferation-required gene encoding 50S ribosomal protein, each antibiotic was serially diluted two or three fold in growth medium supplemented with the appropriate antibiotic for maintenance of the anti-sense construct. […]
Cells for the assay were prepared as follows. […] The plate was then loaded into a plate reader, incubated at constant temperature, and cell growth was monitored in each well by the measurement of light scattering at 595 nm. Growth was monitored every 5 minutes until the cell culture attained a stationary growth phase. For each concentration of antibiotic, a percentage inhibition of growth was calculated at the time point corresponding to mid-exponential growth for the associated control wells (no antibiotic, plus or minus IPTG). For each antibiotic and condition (plus or minus IPTG), a plot of percent inhibition versus log of antibiotic concentration was generated and the IC50 determined.

Escherichia coli = assay: Growth inhibition after IPTG induction of antisense RNA expression (Example 1; score of Example 12); format: cell-based; conditions: for effect of antisense expression on E. coli growth: 1 mM IPTG
Procedure: (§1) To study the effects of transcriptional induction in liquid medium, growth curves were carried out by back diluting cultures 1:200 into fresh media with or without 1 mM IPTG and measuring the OD450 every 30 minutes (min). To study the effects of transcriptional induction on solid medium, 10^2, 10^3, 10^4, 10^5, 10^6, 10^7 and 10^8 fold dilutions of overnight cultures were prepared. Aliquots of from 0.5 to 3 μl of these dilutions were spotted on selective agar plates with or without 1 mM IPTG. After overnight incubation, the plates were compared to assess the sensitivity of the clones to IPTG.
Of the numerous clones tested, some clones were identified as containing a sequence that inhibited E. coli growth after IPTG induction. Accordingly, the gene to which the inserted nucleic acid sequence corresponds, or a gene within the operon containing the inserted nucleic acid, may be required for proliferation in E. coli.
(§2) Molecule No. EcXA059, encoding a portion of the ypjA gene of Escherichia coli, was either transformed directly into Enterobacter cloacae, Salmonella typhimurium and/or Klebsiella pneumoniae or subcloned into an expression vector functional in these species and the subclones transformed into these organisms. Suitable expression vectors are well known in the art. These expression vectors were introduced into Enterobacter cloacae, Salmonella typhimurium and/or Klebsiella pneumoniae cells that were then assayed for growth inhibition according to the method of Example 1. After growth in liquid culture, cells were plated at various serial dilutions and a score determined by calculating the log difference in growth for INDUCED vs. UNINDUCED antisense RNA expression as determined by the maximum 10 fold dilution at which a colony was observed. If there was no effect of antisense RNA expression in one organism, the clone is given a score of zero “0” in that organism. In contrast, a score of “8” means that 10^8 times more cells were required to observe a colony formed on the induced state than in the non-induced state under the conditions used and in that organism.

Enterobacter cloacae = assay: Growth inhibition by E. coli antisense nucleic acids in another microorganism, INDUCED vs. UNINDUCED (Example 12, Table V); format: cell-based; conditions: for Sensitivity of E. cloacae to antisense nucleic acid (growth inhibition, INDUCED vs. UNINDUCED): antisense RNA expression induced with IPTG, serial dilution plating
Procedure: as §1, §2
(§3) Expression vectors which inhibited growth of E. coli upon induction of antisense RNA expression with IPTG were transformed directly into Enterobacter cloacae, Klebsiella pneumonia or Salmonella typhimurium. The transformed cells were then assayed for growth inhibition according to the method of Example 1. After growth in liquid culture, cells were plated at various serial dilutions and a score determined by calculating the log difference in growth for INDUCED vs. UNINDUCED antisense RNA expression as determined by the maximum 10 fold dilution at which a colony was observed. If there was no effect of antisense RNA expression in a microorganism, the clone is minus in Table V below. In contrast, a positive in Table V below means that at least 10 fold more cells were required to observe a colony on the induced plate than on the non-induced plate under the conditions used and in that microorganism.

Salmonella typhimurium = assay: as above; format: cell-based; conditions: for Sensitivity of S. typhimurium to antisense nucleic acid (growth inhibition, INDUCED vs. UNINDUCED): antisense RNA expression induced with IPTG, serial dilution plating
Procedure: as §1, §2, §3

Klebsiella pneumoniae = assay: as above; format: cell-based; conditions: for Sensitivity of K. pneumoniae to antisense nucleic acid (growth inhibition, INDUCED vs. UNINDUCED): antisense RNA expression induced with IPTG, serial dilution plating
Procedure: as §1, §2, §3

Row | Molecule | effect of antisense expression on E. coli growth (Escherichia coli) | Sensitivity of E. cloacae to antisense nucleic acid (growth inhibition, INDUCED vs. UNINDUCED) (Enterobacter cloacae) | Sensitivity of S. typhimurium to antisense nucleic acid (growth inhibition, INDUCED vs. UNINDUCED) (Salmonella typhimurium) | Sensitivity of K. pneumoniae to antisense nucleic acid (growth inhibition, INDUCED vs. UNINDUCED) (Klebsiella pneumoniae) | other results
1 | NC[C@H]1O[C@H](O[C@H]2[C@H](O)[C@@H](O[C@H]3O[C@H](CO)[C@@H](O)[C@H](N)[C@H]3O)[C@H](N)C[C@@H]2N)[C@H](N)C[C@@H]1O [Tobramycin] | – | – | – | – | IC50 [1]: 0.0705 µg/mL (≈ 0.151 µM)
2 | EcXA062: antisense clone insert, E. coli gene rep (nucleic acid, listed as Escherichia coli, misc_feature (1)...(328): n = A,T,C or G, antisense clone insert, E. coli gene rep) DNA: CGCGTGGAGAGTCATCAGTTGCACCTGATCCAGCTCTTCTTCACTCTCACCACGCTCNATCATGTCGCGCAAAGTAAAGCGCGTCACCACCTGGGTGAGCGTCATCGGCTCATCCAGTTCACTGCCTTCCAGCATCTCCGTCATCCAGCTAAACAGTTGGTTGACGTTCTTCATGCGCATTTCGGCGGCTTTCGGGCTGGGCGATGTTTCGTACAGCCAGGATTCATAATCCATGCCATGGATCAGATCACGCACCGCGGCAATCGGCTCCCGCTCCGCCAGACGCTGGATTTCTGCCAACCAGTGAGTGAAGCGGGTCAATGCTTCA | reduction in cell growth | – | – | – | –
3 | EcXA083: antisense clone insert, E. coli gene hrpB (nucleic acid, listed as Escherichia coli) DNA: CGGCTTAGCGCGTCGTTGGCATCGAGCATCGCTCCCATGCCGTTTGCCAGTTGATAGCGTCCATCTTGCC | reduction in cell growth | – | – | – | –
4 | EcXA082: antisense clone insert, E. coli genes hybC; hybB (nucleic acid, listed as Escherichia coli) DNA: TGCTTTGCTCGCCTCATGACGATTATGATCGTTTTGTTTTAAAGGAGGAAGTATCGGCAGTAGACGAATGAGTACGATGTAAGCGCAAATCTCAATAGCCACAAAACCAATAGAAATCAACAGTTCTTCCCAGGTCGGGAAGTA | reduction in cell growth | + (a positive in Table V below means that at least 10 fold more cells were required to observe a colony on the induced plate than on the non-induced plate) | – | – | –
5 | EcXA059: antisense clone insert encoding a portion of the ypjA gene of Escherichia coli (nucleic acid, listed as Escherichia coli, misc_feature (1)...(839): n = A,T,C or G, antisense clone insert encoding a portion of the ypjA gene of Escherichia coli) DNA: NACCANGANTGGGACCCAAATGAAAATTGAACTGAAGATTACAATCAATTTAACANCAAGTTACACAACCAATTCAGACTCCGCCAGCCCACCAATCATGATTGGACGGTGTAAGGACAACACCAACAAAAACAGGAAGTTAGAAGTCTNAGCAAAACACCGACCAGACGGTGAGGAGACATAAAAGGATACGCAAAGGAGCCGCGGCTCCTGGTAACATGAAAGCCCACAGATGTGGGCTTTTTCGTTGATGGTCAGAACGACCAGTTCACACCAGCTACCGCGTTCCACGGGGATTCCACACCGGCACTATGGCTATACCCCACCCCAAGATGCCCGCTTAACGTACTGCTGAATGAGGCTTTAATACCTGCCTGGTATATTCCACGTCTGCCCGACAAATAATTGACGAAATTACCGNCACTATTCACTTTCACCCGGTTATCATCGACAAATTCTTTGCGCACAAGCCGNCTTCAGCCACGGNTCAACTTCCATACCGNTCCCCAGACGCATGTTGTAACTCAACGTTGCGCCCAGTTCACGATATATACTGCGGGTATCGACTGATTTCGATTTCATGCCATTGGATAAATGATATTCGGGGTTATCAGCGGTGAAACCCGTTNACGATGCATACNGGGTCAGGGTTCAATTACCATCGGTAAATCGCATTCCCGGTTTCAATGTGACCGCCAANCCCGTTGCTGTNGGTAACTGGCATTGGCGGGTTCANCGGTGGTAATTTTAACCTGGTACGNTACTTTTAAAACGGGTTAAGCTTTACCGAANACCGTNCANNATTGGAAACCCNCTTTTAATGGTTNCCCAACTNGGNN | – | + (a positive in Table V below means that at least 10 fold more cells were required to observe a colony on the induced plate than on the non-induced plate) | + (a positive in Table V below means that at least 10 fold more cells were required to observe a colony on the induced plate than on the non-induced plate) | + (a positive in Table V below means that at least 10 fold more cells were required to observe a colony on the induced plate than on the non-induced plate) | score (log difference in growth for INDUCED vs. UNINDUCED antisense RNA expression) (Enterobacter cloacae; Enterobacter cloacae, IPTG induction): 8; score (log difference in growth for INDUCED vs. UNINDUCED antisense RNA expression) (Salmonella typhimurium; Salmonella typhimurium, IPTG induction): 8; score (log difference in growth for INDUCED vs. UNINDUCED antisense RNA expression) (Klebsiella pneumoniae; Klebsiella pneumoniae, IPTG induction): > 7; score (log difference in growth for INDUCED vs. UNINDUCED antisense RNA expression) (Escherichia coli; Escherichia coli, maximum 10 fold dilution at which a colony was observed): 8
6 | EcXA072: antisense clone insert, E. coli gene recJ (nucleic acid, listed as Escherichia coli) DNA: GATTTTTACCGGATTAATTTTAAACATGGTCTGATTTCTTTTATTGAGCTAGTCAAAATGCGGTGATAAGAGCGGGATTGTCCCAATCCACGCTCTTTTTTATAGAGAAGATGACGCTAAATTGGCCAGATATTGTCGATGATAATTTG | reduction in cell growth | – | + (a positive in Table V below means that at least 10 fold more cells were required to observe a colony on the induced plate than on the non-induced plate) | + (a positive in Table V below means that at least 10 fold more cells were required to observe a colony on the induced plate than on the non-induced plate) | –
7 | EcXA104: antisense clone insert, E. coli gene hsdS (nucleic acid, listed as Escherichia coli) DNA: GACGCGGCGAACGATTTCGGCTTGTTCTTTTACTGGAGGTAATAAAACAACTTGGGATTTGATATCTTTTCCTGAAATACCTTTTTGACCAGAAGTTGTTTTCACGCAGTTCATCATTGCATTTCGTGCTGAGGGGGATGAAAAAAATATTTCGATATATTCTGGTAAAGCATCTTT | reduction in cell growth | + (a positive in Table V below means that at least 10 fold more cells were required to observe a colony on the induced plate than on the non-induced plate) | + (a positive in Table V below means that at least 10 fold more cells were required to observe a colony on the induced plate than on the non-induced plate) | + (a positive in Table V below means that at least 10 fold more cells were required to observe a colony on the induced plate than on the non-induced plate) | –
